Molecular target: T1, proteinase 3 and neutrophil elastase (PR1) peptide on HLA-A*02:01 (human)
T1 peptide: VLQELNVTV
Test: multimer staining
Description: Briefly, from PBMC that were derived from a healthy HLA-A2+ donor, the inventor elicited bulk PR1-CTL cell lines after 4 to 6 weeks of weekly stimulations with the PR1 peptide+low dose IL-2 and IL-7 in vitro, as outlined in FIG. 1. These CTL were subsequently placed into limiting dilution culture and after an additional 14 to 20 days. The cells were expanded with anti-CD3/anti-CD28 beads+IL-2+feeder cells+IL-15 to sufficient numbers and were then tested. The PR1-CTLs were stained with PR1-CTL tetramer to confirm specificity (FIG. 2). Unique cDNA sequences from the CDR3-α and CDR3-β regions from two different PR1-specific CTL clones that were derived from an HLA-A2+ healthy individual were obtained. The inventor reported that one PR1-CTL clone (F4) bears a relatively high avidity TCR for the PR1/HLA-A2 ligand, while the other CTL clone (B12) bears a relatively low avidity TCR. These conclusions are supported with PR1/HLA-A2 tetramer binding data and with cytotoxicity assays that show F4 to have a higher tetramer staining fluorescence intensity and a lower threshold of activation than the B12 clone, respectively. TCR-αβ CDR3 nucleic acid sequence data is provided showing clonality at the molecular level.

Binder | binding result
High avidity PR1-CTL clone F4 TCR (TCR, V domains shown) Valpha: GQNIDQPTEMTATEGAIVQINCTYQTSGFNGLFWYQQHAGEAPTFLSYNVLDGLEEKGRFSSFLSRSKGYSYLLLKELQMKDSASYLCAVSRDSGNTPLVFGKGTRLSVIA Vbeta: DSGVTQTPKHLITATGQRVTLRCSPRSGDLSVYWYQQSLDQGLQFLIQYYNGEERAKGNILERFSAQQFPDLHSELNLSSLELGDSALYFCASSPSGTGNIQYFGAGTRLSVL | recognises
Low avidity PR1-CTL clone B12 TCR (TCR, V domains shown) Valpha: AQSVTQPDIHITVSEGASLELRCNYSYGATPYLFWYVQSPGQGLQLLLKYFSGDTLVQGIKGFEAEFKRSQSSFNLRKPSVHWSDAAEYFCAVGGGARLMFGDGTQLVVKP Vbeta: KAGVTQTPRYLIKTRGQQVTLSCSPISGHRSVSWYQQTPGQGLQFLSEYFSETQRNKGNFPGRFSGRQFSNPRSEMNVSTLELGDSALYLCASSGEAFYEQYFGPGTRLTVT | recognises
